According to patent US20090258001A1:

Columns and labels:
[1] = biological target: CD3 (CD3/TCR complex) on CD4+ and CD8+ T cells of patients (human) (UniProt P07766); experiment: flow cytometry of CD4+ T cells, anti-human IgG; Example 3 Cohort 2 (0.5 mg x3), 2 hours after end of dosing
[2] = biological target: CD3 (CD3/TCR complex) on CD4+ and CD8+ T cells of patients (human) (UniProt P07766); experiment: flow cytometry of CD4+ T cells, free CD3 sites by biotinylated TRX4; Example 4 Cohort B, 0.3 mg
[3] = biological target: CD3 (CD3/TCR complex) on CD4+ and CD8+ T cells of patients (human) (UniProt P07766); experiment: flow cytometry of CD4+ T cells, free CD3 sites by biotinylated TRX4; Example 4 Cohort C, 1.0 mg
[4] = biological target: CD3 (CD3/TCR complex) on CD4+ and CD8+ T cells of patients (human) (UniProt P07766); experiment: flow cytometry of CD4+ T cells, anti-human IgG; Example 4 Cohort C, about 24 hours after 1.0 mg infusion
[5] = biological target: CD3 (CD3/TCR complex) on CD4+ and CD8+ T cells of patients (human) (UniProt P07766); experiment: flow cytometry of CD4+ T cells, free CD3 sites by biotinylated TRX4; Example 4 Cohort A, day after last infusion
[6] = biological target: CD3 (CD3/TCR complex) on CD4+ and CD8+ T cells of patients (human) (UniProt P07766); experiment: flow cytometry of CD4+ T cells, free CD3 sites by biotinylated TRX4; Example 3 Cohort 3, 0.5 mg, end of infusion
[7] = biological target: CD3 (CD3/TCR complex) on CD4+ and CD8+ T cells of patients (human) (UniProt P07766); experiment: flow cytometry of CD4+ T cells, free CD3 sites by biotinylated TRX4; Example 4 Cohort A, 0.3 mg
[8] = biological target: CD3 (CD3/TCR complex) on CD4+ and CD8+ T cells of patients (human) (UniProt P07766); experiment: flow cytometry of CD4+ T cells, free CD3 sites by biotinylated TRX4; Example 4 Cohort B, 2 hours after last infusion
[9] = biological target: CD3 (CD3/TCR complex) on CD4+ and CD8+ T cells of patients (human) (UniProt P07766); experiment: flow cytometry of CD4+ T cells, free CD3 sites by biotinylated TRX4; Example 3 Cohort 3, 0.3 mg
[10] = biological target: CD3 (CD3/TCR complex) on CD4+ and CD8+ T cells of patients (human) (UniProt P07766); experiment: flow cytometry of CD4+ T cells, free CD3 sites by biotinylated TRX4; Example 4 Cohort C, 0.2 mg
[11] = biological target: CD3 (CD3/TCR complex) on CD4+ and CD8+ T cells of patients (human) (UniProt P07766); experiment: flow cytometry of CD4+ T cells, free CD3 sites by biotinylated TRX4; Example 3 Cohort 3, 2 hours after 0.5 mg infusion
[12] = biological target: CD3 (CD3/TCR complex) on CD4+ and CD8+ T cells of patients (human) (UniProt P07766); experiment: flow cytometry, free sites by biotinylated TRX4; Example 4, 4-dose cohorts, 24 hours after infusion
[13] = biological target: CD3 (CD3/TCR complex) on CD4+ and CD8+ T cells of patients (human) (UniProt P07766); experiment: flow cytometry of CD4+ T cells, anti-human IgG; Example 4 Cohort B, end of 0.1 mg infusion
[14] = biological target: CD3 (CD3/TCR complex) on CD4+ and CD8+ T cells of patients (human) (UniProt P07766); experiment: flow cytometry of CD4+ T cells, free CD3 sites by biotinylated TRX4; Example 4 Cohort C, 0.3 mg
[15] = biological target: CD3 (CD3/TCR complex) on CD4+ and CD8+ T cells of patients (human) (UniProt P07766); experiment: flow cytometry of CD4+ T cells, free CD3 sites by biotinylated TRX4; Example 4 Cohort A*, 0.1 mg
[16] = biological target: CD3 (CD3/TCR complex) on CD4+ and CD8+ T cells of patients (human) (UniProt P07766); experiment: flow cytometry of CD4+ T cells, anti-human IgG; Example 4 Cohort A*, end of 0.1 mg infusion
[17] = biological target: CD3 (CD3/TCR complex) on CD4+ and CD8+ T cells of patients (human) (UniProt P07766); experiment: flow cytometry of CD4+ T cells, anti-human IgG; Example 4 Cohort A, 2 hours after 0.5 mg infusion
[18] = biological target: CD3 (CD3/TCR complex) on CD4+ and CD8+ T cells of patients (human) (UniProt P07766); experiment: flow cytometry, free sites by biotinylated TRX4; Example 4, 4-dose cohorts, after doses of 0.5 mg and higher
[19] = biological target: CD3 (CD3/TCR complex) on CD4+ and CD8+ T cells of patients (human) (UniProt P07766); experiment: flow cytometry of CD4+ T cells, anti-human IgG; Example 4 Cohort C, 2 hours after 1.0 mg infusion
[20] = biological target: CD3 (CD3/TCR complex) on CD4+ and CD8+ T cells of patients (human) (UniProt P07766); experiment: flow cytometry of CD4+ T cells, anti-human IgG; Example 4 Cohort A, end of 0.1 mg infusion
[21] = biological target: CD3 (CD3/TCR complex) on CD4+ and CD8+ T cells of patients (human) (UniProt P07766); experiment: flow cytometry of CD4+ T cells, free CD3 sites by biotinylated TRX4; Example 4 Cohort A*, 0.15 mg
[22] = biological target: CD3 (CD3/TCR complex) on CD4+ and CD8+ T cells of patients (human) (UniProt P07766); experiment: flow cytometry of patients' CD4+ T cells, anti-human IgG; Example 3 Cohort 1 (0.1 mg x3), end of second infusion
[23] = biological target: CD3 (CD3/TCR complex) on CD4+ and CD8+ T cells of patients (human) (UniProt P07766); experiment: flow cytometry of CD4+ T cells, anti-human IgG; Example 4 Cohort A*, end of 0.05 mg infusion
[24] = biological target: CD3 (CD3/TCR complex) on CD4+ and CD8+ T cells of patients (human) (UniProt P07766); experiment: flow cytometry of CD4+ T cells, free CD3 sites by biotinylated TRX4; Example 3 Cohort 1, end of first 0.1 mg infusion
[25] = biological target: CD3 (CD3/TCR complex) on CD4+ and CD8+ T cells of patients (human) (UniProt P07766); experiment: flow cytometry of CD4+ T cells, anti-human IgG; Example 4 Cohort A, end of 0.3 mg infusion

UniProt P07766, sequence (P07766 23-207, chain 1 of 3): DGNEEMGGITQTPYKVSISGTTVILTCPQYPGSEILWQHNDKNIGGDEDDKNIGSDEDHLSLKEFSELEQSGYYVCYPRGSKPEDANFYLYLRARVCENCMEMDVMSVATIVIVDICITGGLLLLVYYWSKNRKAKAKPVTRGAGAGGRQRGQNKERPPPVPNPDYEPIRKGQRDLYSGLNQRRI
UniProt P07766, sequence (chain, as listed by the source, chain 2 of 3): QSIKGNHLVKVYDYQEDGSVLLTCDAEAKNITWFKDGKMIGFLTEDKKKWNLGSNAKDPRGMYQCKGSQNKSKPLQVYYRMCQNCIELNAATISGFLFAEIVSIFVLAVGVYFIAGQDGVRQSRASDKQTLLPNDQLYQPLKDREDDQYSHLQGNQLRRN
UniProt P07766, sequence (chain, as listed by the source, chain 3 of 3): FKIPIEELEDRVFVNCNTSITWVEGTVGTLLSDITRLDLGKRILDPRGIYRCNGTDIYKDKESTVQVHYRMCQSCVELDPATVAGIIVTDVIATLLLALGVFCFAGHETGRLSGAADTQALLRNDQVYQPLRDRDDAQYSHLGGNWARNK

cell-bound TRX4 (MESF of anti-human IgG) [1]: 400000 MESF units
percent saturation of CD3 [2]: 80%
percent saturation of CD3 [3]: 97%
cell-bound TRX4 (MESF of anti-human IgG) [4]: 200000 MESF units
percent saturation of CD3 [5]: 35%
percent saturation of CD3 [6]: 90%
percent saturation of CD3 [7]: 85%
percent saturation of CD3 [8]: 70%
percent saturation of CD3 [9]: 70%
percent saturation of CD3 [10]: 95%
percent saturation of CD3 [11]: 45%
percent saturation of CD3 [12]: 40%
cell-bound TRX4 (MESF of anti-human IgG) [13]: 2e+06 MESF units
percent saturation of CD3 [14]: 99%
percent saturation of CD3 [15]: 70%
cell-bound TRX4 (MESF of anti-human IgG) [16]: 700000 MESF units
cell-bound TRX4 (MESF of anti-human IgG) [17]: 400000 MESF units
percent saturation of CD3 [18]: > 90%
cell-bound TRX4 (MESF of anti-human IgG) [19]: 600000 MESF units
cell-bound TRX4 (MESF of anti-human IgG) [20]: 200000 MESF units
percent saturation of CD3 [21]: 80%
cell-bound TRX4 (MESF of anti-human IgG) [22]: 300000 MESF units
cell-bound TRX4 (MESF of anti-human IgG) [23]: 300000 MESF units
percent saturation of CD3 [24]: 37%
cell-bound TRX4 (MESF of anti-human IgG) [25]: 600000 MESF units
Substance: TRX4 antibody
